Holding throughout (assay): SEC
For assay [1], the target named is 6His-TOSV NP (Toscana virus nucleoprotein with N-terminal hexahistidine tag), refolded (Toscana virus (strain AR2005)) (UniProt P21701).
Assay [2] deals with RVFV NP (Rift Valley fever virus nucleoprotein after removal of the TRX-6His tag) (Rift Valley fever virus (strain Smithburn)) (UniProt P21700).
Assay [3] has as its target TOSV NP (Toscana virus nucleoprotein after removal of the TRX-6His tag) (Toscana virus (strain AR2005)) (UniProt P21701).
Assay [4] shares this target. This is another data set of the same source.

This is an account of results in PMC3014985.

Where two headings read alike, the source gives them in different places.

“6His-TOSV NP (Toscana virus nucleoprotein with N-terminal hexahistidine tag), refolded (from UniProt P21701 1-253) (natural protein)”: the stoichiometry N in assay [1] came to 3.

“RVFV NP (Rift Valley fever virus nucleoprotein after removal of the TRX-6His tag) (from UniProt P21700 1-245) (natural protein)” showed a stoichiometry N in assay [2] of 3.

For the substance “TOSV NP (Toscana virus nucleoprotein after removal of the TRX-6His tag) (from UniProt P21701 1-253) (natural protein)”, the stoichiometry N in assay [3] stood at 3; in assay [4] it was 6.
